Kd data for 55 molecules are collected here from article PMC9352680, “A comprehensive thermodynamic model for RNA binding by the Saccharomyces cerevisiae Pumilio protein PUF4”.

A word on the Kd: it is the free concentration of one partner at which half of the binding sites on the other are occupied at equilibrium, for simple one-to-one binding.

The target in this data set is T1, PUF4 RNA-binding domain (Saccharomyces cerevisiae, UniProt P25339 537-888).
T1 sequence: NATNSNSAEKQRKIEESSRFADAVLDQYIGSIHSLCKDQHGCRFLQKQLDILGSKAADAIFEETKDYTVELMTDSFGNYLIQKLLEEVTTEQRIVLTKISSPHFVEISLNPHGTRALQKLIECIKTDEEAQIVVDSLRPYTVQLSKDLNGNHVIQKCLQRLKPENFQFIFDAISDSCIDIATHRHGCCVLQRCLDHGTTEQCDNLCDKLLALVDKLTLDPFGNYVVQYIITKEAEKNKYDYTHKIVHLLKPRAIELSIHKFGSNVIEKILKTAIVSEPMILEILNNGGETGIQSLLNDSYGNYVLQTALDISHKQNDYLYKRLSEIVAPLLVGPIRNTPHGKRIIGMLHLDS
The data set is described as follows: Mg; RNA-MaP; 20 mM Na-HEPES pH 7.4, 30 mM KOAc, 0.75 mM MgCl2, 0.1% Tween-20, 5% glycerol, 0.1 mg/mL BSA, 2 mM DTT; 25 C; 0.0125-409.6 nM protein. Particulars: tags: N-His6-TEV cleaved; C-SNAP kept, Cy3B-labelled; label: tethered on chip by stalled RNA polymerase.

Positions count from the first letter of the chain named. Names may count otherwise. Some results are limits rather than exact numbers.

In turn, UCUCUUUAUACACUUAUUAUAUCUCUU (ssRNA) [Id_iii_S1_P5E.7_K5.3_C5.3_[C-2A]_H5.3_A5.1_F5.1_T5.2] registered an equilibrium dissociation constant (Kd) of 720 nM. In the case of UCUCUUCCUACACUUAUUAUAUCUCUU (ssRNA) [Id_iii_S1_P5E.7_K5.3_C5.3_[T-3C]_H5.3_A5.1_F5.1_T5.2] it was more than 2300 nM; in that of UCUCUUUCUUGUAAUAAAAUCUCUCUU (ssRNA) [Id_iii_S1_P5E.9_K5.5_C5.3_H5.1_A5.2_F5.2_T5.2_[A12C]], 411 nM; in that of UCUCUUACUACACUUAUUAUAUCUCUU (ssRNA) [Id_iii_S1_P5E.7_K5.3_C5.3_[T-3A]_H5.3_A5.1_F5.1_T5.2], 1570 nM. To UCUCUUUCGUGUAUUUAAGUUCUCUU (ssRNA) [Id_iii_S1_P4E.9_K4.5_C4.3_[T-1G]_H4.1_A4.2_F4.2_T4.2] belongs 694 nM; to UCUCUUUCUUGUAUUUUAGCUCUCUU (ssRNA) [Id_iii_S1_P4E.8_K4.4_C4.3_H4.1_A4.2_F4.1_T4.2_[T11C]], 1.07 nM; to UCUCUUUCUUGUAAUAUUAUGUCUCUU (ssRNA) [Id_iii_S1_P5E.8_K5.4_C5.3_H5.1_A5.2_F5.1_T5.2_[A12G]], 10 nM. To UCUCUUUGUUUAAUUAUCUCUU (ssRNA) [Ib_S1_P5E.1_K5.1_C5.1_H5.1_[A4T]_A5.1_[T6A]_F5.1_T5.1] belongs 44.6 nM. Molecule UCUCUUUCUUGUAUUUUAAUUCUCUU (ssRNA) [Id_iii_S1_P4E.8_K4.4_C4.3_H4.1_A4.2_F4.1_T4.2_[G10A]] had a Kd of 3.62 nM. This Kd is about 12-fold lower than that of the molecule before. In the case of UCUCUUUCUUGUAAUAUUAUCUCUCUU (ssRNA) [Id_iii_S1_P5E.8_K5.4_C5.3_H5.1_A5.2_F5.1_T5.2_[A12C]] it was 6.29 nM; in that of UCUCUUUCUUGUAAUAUUAAAUCUCUU (ssRNA) [Id_iii_S1_P5E.8_K5.4_C5.3_H5.1_A5.2_F5.1_T5.2_[T11A]], 11.3 nM; in that of UCUCUUUAUUGUAAUAUUAUAUCUCUU (ssRNA) [Id_iii_S1_P5E.8_K5.4_C5.3_[C-2A]_H5.1_A5.2_F5.1_T5.2], 9.11 nM.

Consider UCUCUUUCUUAUAUUAUUAUCUCUCUU (ssRNA) [Id_iii_S1_P5E.6_K5.2_C5.3_H5.2_A5.1_F5.1_T5.2_[A12C]], for which the affinity, expressed as Kd, was 471 nM. This Kd is about 52-fold higher than that of the molecule before. Take UCUCUUUCUUAUAUUAUUACAUCUCUU (ssRNA) [Id_iii_S1_P5E.6_K5.2_C5.3_H5.2_A5.1_F5.1_T5.2_[T11C]]: the affinity, expressed as Kd, was 450 nM. To UCUCUUUCUUGUAAUAUUAUUUCUCUU (ssRNA) [Id_iii_S1_P5E.8_K5.4_C5.3_H5.1_A5.2_F5.1_T5.2_[A12T]] belongs 7.29 nM. To UCUCUUUUUUGUAUUUAAGUUCUCUU (ssRNA) [Id_iii_S1_P4E.9_K4.5_C4.3_[C-2T]_H4.1_A4.2_F4.2_T4.2] belongs 618 nM; to UCUCUUUCCACACUUAUUAUAUCUCUU (ssRNA) [Id_iii_S1_P5E.7_K5.3_C5.3_[T-1C]_H5.3_A5.1_F5.1_T5.2], more than 2300 nM; to UCUCUUCCUUGUAAUAUUAUAUCUCUU (ssRNA) [Id_iii_S1_P5E.8_K5.4_C5.3_[T-3C]_H5.1_A5.2_F5.1_T5.2], 8.43 nM.

On to UCUCUUUCUUAUAUUAUUAAAUCUCUU (ssRNA) [Id_iii_S1_P5E.6_K5.2_C5.3_H5.2_A5.1_F5.1_T5.2_[T11A]], for which the Kd was determined as 551 nM. In the case of UCUCUUUCUUGUAUUAUUAUUUCUCUU (ssRNA) [Id_iii_S1_P5E.5_K5.1_C5.3_H5.1_A5.1_F5.1_T5.2_[A12T]] it was 4.34 nM; in that of UCUCUUUGUAUUUUUAUCUCUU (ssRNA) [Ia_S1_P5E.1_K5.1_C5.1_H5.1_A5.1_[A7T]_F5.1_T5.1], 3.57 nM.

On to UCUCUUUCUUGUAUUUAAAUUCUCUU (ssRNA) [Id_iii_S1_P4E.9_K4.5_C4.3_H4.1_A4.2_F4.2_T4.2_[G10A]], for which the affinity, expressed as Kd, was 96.9 nM. To UCUCUUUCAUGUAUUUAAGUUCUCUU (ssRNA) [Id_iii_S1_P4E.9_K4.5_C4.3_[T-1A]_H4.1_A4.2_F4.2_T4.2] belongs 648 nM. In the case of UCUCUUUGUACACUUAUUAUAUCUCUU (ssRNA) [Id_iii_S1_P5E.7_K5.3_C5.3_[C-2G]_H5.3_A5.1_F5.1_T5.2] it was 3.9 nM; in that of UCUCUUUCUUAUAUUAUUAUUUCUCUU (ssRNA) [Id_iii_S1_P5E.6_K5.2_C5.3_H5.2_A5.1_F5.1_T5.2_[A12T]], 372 nM. To UCUCUUUCUUGUAUUUAACUUCUCUU (ssRNA) [Id_iii_S1_P4E.9_K4.5_C4.3_H4.1_A4.2_F4.2_T4.2_[G10C]] belongs 70.1 nM; to UCUCUUACUUGUAAUAUUAUAUCUCUU (ssRNA) [Id_iii_S1_P5E.8_K5.4_C5.3_[T-3A]_H5.1_A5.2_F5.1_T5.2], 13.7 nM. For UCUCUUUCUUGUAUUAUUAAAUCUCUU (ssRNA) [Id_iii_S1_P5E.5_K5.1_C5.3_H5.1_A5.1_F5.1_T5.2_[T11A]], the Kd turned out to be 11.1 nM.

Consider UCUCUUUCUACACUUAUUAUGUCUCUU (ssRNA) [Id_iii_S1_P5E.7_K5.3_C5.3_H5.3_A5.1_F5.1_T5.2_[A12G]], for which the Kd is more than 2300 nM. On to UCUCUUUCUUGUAUUAUUAUGUCUCUU (ssRNA) [Id_iii_S1_P5E.5_K5.1_C5.3_H5.1_A5.1_F5.1_T5.2_[A12G]], for which binding was characterised by a dissociation constant (Kd) of 8.55 nM. Turning to UCUCUUUCUACACUUAUUACAUCUCUU (ssRNA) [Id_iii_S1_P5E.7_K5.3_C5.3_H5.3_A5.1_F5.1_T5.2_[T11C]], the Kd is more than 2300 nM. In the case of UCUCUUUCCUGUAAUAUUAUAUCUCUU (ssRNA) [Id_iii_S1_P5E.8_K5.4_C5.3_[T-1C]_H5.1_A5.2_F5.1_T5.2] it was 7.32 nM; in that of UCUCUUUGUCUUGUUAUCUCUU (ssRNA) [Ib_S1_P5E.1_K5.1_C5.1_H5.1_[A4C]_A5.1_[A7G]_F5.1_T5.1], 475 nM. In the case of UCUCUUUCCUGUAUUUAAGUUCUCUU (ssRNA) [Id_iii_S1_P4E.9_K4.5_C4.3_[T-1C]_H4.1_A4.2_F4.2_T4.2] it was 460 nM; in that of UCUCUUUGUGUUUUUAUCUCUU (ssRNA) [Ib_S1_P5E.1_K5.1_C5.1_H5.1_[A4G]_A5.1_[A7T]_F5.1_T5.1], 26.8 nM; in that of UCUCUUUCUUGUAAUAAAAAAUCUCUU (ssRNA) [Id_iii_S1_P5E.9_K5.5_C5.3_H5.1_A5.2_F5.2_T5.2_[T11A]], 412 nM.

B1: Id_iii_S2_P3E.5_K3.1_C3.3_[T-3A]_H3.1_A3.1_F3.1_T3.2 (ssRNA)
RNA: UUUGAUUAAUAUGAUAUCGUUCUUUCUACUUGUAUAUAUAUUCUUUCUCGAUAUCAUAUUAAUCUUU
As for B1, binding was characterised by a dissociation constant (Kd) of 1.18 nM.

B2: Id_iii_S2_P3E.6_K3.2_C3.3_[T-3A]_H3.2_A3.1_F3.1_T3.2 (ssRNA)
RNA: B1 RNA with G32A
In the case of B2, the affinity, expressed as Kd, was 91.2 nM. Compared with the last molecule, the Kd is about 77-fold higher.

B3: Id_iii_S2_P3E.5_K3.1_C3.3_[T-1A]_H3.1_A3.1_F3.1_T3.2 (ssRNA)
RNA: B1 RNA with A28U, U30A
B3: the Kd is 1.7 nM.

B4: Id_iii_S2_P3E.6_K3.2_C3.3_[C-2T]_H3.2_A3.1_F3.1_T3.2 (ssRNA)
RNA: B1 RNA with A28U, C29U, G32A
Take B4: the Kd worked out at 111 nM.

B5: Id_iii_S2_P3E.5_K3.1_C3.3_[C-2T]_H3.1_A3.1_F3.1_T3.2 (ssRNA)
RNA: B1 RNA with A28U, C29U
The molecule B5 showed a Kd of 1.52 nM. Against the preceding molecule, the Kd is about 73-fold lower.

B6: Id_iii_S2_P3E.6_K3.2_C3.3_[T-1C]_H3.2_A3.1_F3.1_T3.2 (ssRNA)
RNA: B1 RNA with A28U, U30C, G32A
For B6, the Kd came to 28.7 nM.

B7: Id_iii_S2_P3E.6_K3.2_C3.3_H3.2_A3.1_F3.1_T3.2_[A10T] (ssRNA)
RNA: B1 RNA with A28U, G32A, A40U
The molecule B7 had a Kd of 43.5 nM.

B8: Id_iii_S2_P3E.5_K3.1_C3.3_H3.1_A3.1_F3.1_T3.2_[T9A] (ssRNA)
RNA: B1 RNA with A28U, U39A
The molecule B8 yielded a Kd of 3.53 nM.

B9: Id_iii_S2_P3E.6_K3.2_C3.3_H3.2_A3.1_F3.1_T3.2_[T9C] (ssRNA)
RNA: B1 RNA with A28U, G32A, U39C
On to B9, for which binding was put at a Kd of 168 nM. Compared with the last molecule, the Kd is about 48-fold higher.

B10: Id_iii_S2_P3E.6_K3.2_C3.3_[T-1A]_H3.2_A3.1_F3.1_T3.2 (ssRNA)
RNA: B1 RNA with A28U, U30A, G32A
In the case of B10, binding was put at a Kd of 122 nM.

B11: Id_iii_S2_P3E.5_K3.1_C3.3_[C-2G]_H3.1_A3.1_F3.1_T3.2 (ssRNA)
RNA: B1 RNA with A28U, C29G
In the case of B11, the Kd stood at 2.14 nM.

B12: Id_iii_S2_P3E.7_K3.3_C3.3_[T-3A]_H3.3_A3.1_F3.1_T3.2 (ssRNA)
RNA: B1 RNA with U31A, G32C, U33A, A34C
Molecule B12 had a Kd of 213 nM.

B13: Id_iii_S2_P3E.7_K3.3_C3.3_[T-3G]_H3.3_A3.1_F3.1_T3.2 (ssRNA)
RNA: B1 RNA with A28G, U31A, G32C, U33A, A34C
B13 showed a Kd of 156 nM.

B14: Id_iii_S2_P3E.5_K3.1_C3.3_H3.1_A3.1_F3.1_T3.2_[A10G] (ssRNA)
RNA: B1 RNA with A28U, A40G
B14 had a Kd of 2.21 nM.

B15: Id_iii_S2_P3E.6_K3.2_C3.3_H3.2_A3.1_F3.1_T3.2_[T9A] (ssRNA)
RNA: B1 RNA with A28U, G32A, U39A
B15 came in with a Kd of 321 nM. In the case of UCUCUUUGUUGUAUUUAAGUUCUCUU (ssRNA) [Id_iii_S1_P4E.9_K4.5_C4.3_[C-2G]_H4.1_A4.2_F4.2_T4.2] it was 155 nM. For UCUCUUUGUCUUCUUAUCUCUU (ssRNA) [Ib_S1_P5E.1_K5.1_C5.1_H5.1_[A4C]_A5.1_[A7C]_F5.1_T5.1], the Kd was 1090 nM. To UCUCUUUCUACACUUAUUAUUUCUCUU (ssRNA) [Id_iii_S1_P5E.7_K5.3_C5.3_H5.3_A5.1_F5.1_T5.2_[A12T]] belongs more than 2300 nM; to UCUCUUUCUUGUAUUAUUAUCUCUCUU (ssRNA) [Id_iii_S1_P5E.5_K5.1_C5.3_H5.1_A5.1_F5.1_T5.2_[A12C]], 6 nM.
